Patent US20200255499A1 (COUNCIL OF THE QUEENSLAND INSTITUTE OF MEDICAL RESEARCH, published 2020)

What was measured:
[1] = target: T1, Epstein Barr Virus (EBV) glycoprotein gp350 (Epstein-Barr virus, UniProt P03200 1-860); assay: SPR (Biacore T100), gp350 immobilised on CM5 chip, antibody as analyte, single cycle kinetics; single cycle kinetics (FIG. 10), 'KD value' in nM
T1 construct: Viral antigen: immunogen, coated in the ELISAs, immobilised on the CM5 chip in SPR; also called EBV gp350; gp350 antigen
T1 sequence: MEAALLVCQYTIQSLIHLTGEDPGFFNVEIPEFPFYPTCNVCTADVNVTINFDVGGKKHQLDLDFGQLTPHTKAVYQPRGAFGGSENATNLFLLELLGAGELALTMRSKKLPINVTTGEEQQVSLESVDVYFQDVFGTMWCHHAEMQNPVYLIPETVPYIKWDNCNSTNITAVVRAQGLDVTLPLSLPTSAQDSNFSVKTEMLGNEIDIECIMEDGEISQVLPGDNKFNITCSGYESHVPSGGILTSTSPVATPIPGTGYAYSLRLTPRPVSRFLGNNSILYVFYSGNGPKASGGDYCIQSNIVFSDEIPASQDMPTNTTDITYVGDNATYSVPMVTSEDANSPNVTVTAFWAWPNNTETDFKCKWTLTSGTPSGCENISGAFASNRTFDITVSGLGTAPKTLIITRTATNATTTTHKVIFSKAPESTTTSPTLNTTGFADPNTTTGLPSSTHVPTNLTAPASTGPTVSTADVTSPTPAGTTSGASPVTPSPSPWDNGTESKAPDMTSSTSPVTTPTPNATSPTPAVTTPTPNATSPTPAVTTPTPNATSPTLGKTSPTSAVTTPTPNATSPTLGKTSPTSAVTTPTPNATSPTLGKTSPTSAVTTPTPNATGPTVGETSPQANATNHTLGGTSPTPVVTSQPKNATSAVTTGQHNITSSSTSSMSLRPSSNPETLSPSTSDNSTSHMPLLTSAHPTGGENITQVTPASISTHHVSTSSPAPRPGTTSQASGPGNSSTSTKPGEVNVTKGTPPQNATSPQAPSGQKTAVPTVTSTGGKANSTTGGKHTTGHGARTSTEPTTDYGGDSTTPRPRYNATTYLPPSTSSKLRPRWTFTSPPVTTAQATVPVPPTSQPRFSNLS

[2] = target: T1, Epstein Barr Virus (EBV) glycoprotein …; assay: SPR steady-state affinity plot, 1:1 Langmuir fit (FIG. 11), gp350 immobilised; given as 'affinity constant'; 'affinity constant' in M (FIG. 11)
[3] = target: T1, Epstein Barr Virus (EBV) glycoprotein …; assay: SPR steady-state affinity plot, 1:1 Langmuir fit (FIG. 11), gp350 immobilised; given as 'affinity constant'
[4] = target: T1, Epstein Barr Virus (EBV) glycoprotein …; assay: SPR (Biacore T100), gp350 immobilised on CM5 chip, antibody as analyte, single cycle kinetics
[5] = target: T1, Epstein Barr Virus (EBV) glycoprotein …; assay: monoclonal phage ELISA on gp350
[6] = target: T1, Epstein Barr Virus (EBV) glycoprotein …; assay: SPR (Biacore T100), single cycle kinetics, gp350 immobilised on CM5 sensor chip, antibody as analyte
[7] = target: T1, Epstein Barr Virus (EBV) glycoprotein …; assay: SPR (Biacore T100), steady-state affinity plot, 1:1 Langmuir fit, gp350 immobilised on CM5 sensor chip, antibody as analyte
[8] = target: T1, Epstein Barr Virus (EBV) glycoprotein …; assay: SPR steady-state affinity plot, 1:1 Langmuir fit (FIG. 11), gp350 immobilised; printed as 'affinity value'; 'affinity value' in M (FIG. 11)
[9] = target: T1, Epstein Barr Virus (EBV) glycoprotein …; assay: SPR (Biacore T100), gp350 immobilised on CM5 chip, antibody as analyte, single cycle kinetics; single cycle kinetics (FIG. 10), 'dissociation value' in nM
[10] = target: T1, Epstein Barr Virus (EBV) glycoprotein …; assay: SPR (Biacore T100), gp350 immobilised on CM5 chip, antibody as analyte, single cycle kinetics; single cycle kinetics (FIG. 10), dissociation constant in nM

B1: Clone A11 recombinant human IgG1 monoclonal antibody (antibody, V domains shown)
VH: EMQLVQSGAEVKKPGASVKVSCKTSGYNFNHQGISWLRQAPGQGLEWMGWISGFNGKTNYAQKFQGRVTMTADRSTTTAYMELRSLRSDDTAVYYCASGGEQWLVQNFVHWGQGTLLTVSS
VL: ETVLTQEPSLTVSPGGTVTLTCASSTGAVTSGYYPNWFQQKPGQAPRALIYSTSNKHSWTPARFSGSLLGGKAALTLSGVQPEDEAEYYCLLYYGGAWVFGGGTKLTVLG
notes: also called Antibody A11
Kd [1]: 0.723 nM | Kd [2]: 309 nM

B2: Clone B8 recombinant human IgG1 monoclonal antibody (antibody, V domains shown)
VH: EVQLVESAGEVQKPGESLRISCKASGYTFSHYWIGWVRQLPGKGLEWMGIIYPDDSDSRYSPSFQGQVTMSVDKSINTAYLQWNSLKVSDTATYYCVRHWLKRGSNFGFGFDPWGQGTTLTVSS
VL: ESALTQPASVSGSPGQSITISCTGTSSDVGGYNYVSWYQQHPGKAPKLMIYDVSNRPSGVSNRFSGSKSGNTASLTISGLQAEDEADYYCSSYTSSSTLVFGGGTKLTVLG
notes: also called antibody B8
Kd [3]: 829 nM | Kd [4]: 33.3 nM

B3: Clone B8, original phage-displayed antibody fragment (other)
VH: EVQLVESAGEVQKPGESLRISCKASGYTFSHYWIGWVRQLPGKGLEWMGIIYPDDSDSRYSPSFQGQVTMSVDKSINTAYLQWNSLKVSDTATYYCVRHWLKRGSNFGFGFDPWGQGTTLTVSS
VL: ESALTQPASVSGSPGQSITISCTGTSSDVGGYNYVSWYQQHPGKAPKLMIYDVSNRPSGVSNRFSGSKSGNTASLTISGLQAEDEADYYCSSYTSSSTLVFGGGTKLTVLG
notes: VH and VL are as translated from the PCR products of the original phage clone; also called CloneB8 (phage clone)
absorbance [5]: > 1 absorbance

B4: C10 (antibody, V domains shown)
VH: EVQLVQSGAEVKKPGASVKVSCKASGYTFNAYYIHWVRQAPGQGLDWMGWINPNSGGTNYAQNFKGRVTMTRDTSISTAYLELRSLTSDDTAVYFCATERGYTSSFRRDAFDKWGQGTMLTVSS
VL: EAVVTQPPSASGTPGQGVTISCSGSSSNIGSNFVYWYQQLPGTAPKLLIYRNNQRPSGVPDRFSGSKSATSASLAISGLRSEDEADYYCATWDDSLSGYVFGTGTKLTVLG
notes: Full IgG1 form of phage clone C10, expressed in Expi293F cells; It is not in the list MOLECULES; also called Clone C10 recombinant human IgG1 monoclonal antibody; CloneC10
Kd [6]: 11.4 nM | Kd [7]: 663 nM

B5: Clone B7, original phage-displayed antibody fragment (other)
VH: EVQLVQSGAEVKKPGASVEVSCKASGYTFNAYYIHWVRQAPGQGLDWMGWINPNSGGTNYAQNFKGRVTMTRDTSISTAYLELRSLTSDDTAVYFCATERGYTSSFRRDAFDKWGQGTMLTVSS
VL: ESVLTQPPSVSAAPGQKVTISCSGSSSNIGNNYVSWYQQLPGTAPKLLIYENNKRPSGIPDRFSGSKSGTSATLGITGLQTGDEAGYYCGTWDSSLSAVVFGGGTKLTVLG
notes: also called CloneB7 (phage clone)
absorbance [5]: > 1 absorbance

B6: Clone D7, original phage-displayed antibody fragment (other)
VH: EVQLVQSGAEVKKPGASVEVSCKASGYTFNAYYIHWVRQAPGQGLDWMGWINPNSGGTNYAQNFKGRVTMTRDTSISTAYLELRSLTSDDTAVYFCATERGYTSSFRRDAFDKWGQGTMLTVSS
VL: ESVLTQPPSVSAAPGQKVTMSCSGSTSNIGSNSVSWYQHLPGTAPKLLLFDNAKRPSGIPDRFSGSKSGTSATLGITGLQTGDEADYYCGTWDSGLSVMVFGGGTKLTVLG
notes: also called CloneD7 (phage clone)
absorbance [5]: > 1 absorbance

B7: Clone B7 recombinant human IgG1 monoclonal antibody (antibody, V domains shown)
VH: EVQLVQSGAEVKKPGASVEVSCKASGYTFNAYYIHWVRQAPGQGLDWMGWINPNSGGTNYAQNFKGRVTMTRDTSISTAYLELRSLTSDDTAVYFCATERGYTSSFRRDAFDKWGQGTMLTVSS
VL: ESVLTQPPSVSAAPGQKVTISCSGSSSNIGNNYVSWYQQLPGTAPKLLIYENNKRPSGIPDRFSGSKSGTSATLGITGLQTGDEAGYYCGTWDSSLSAVVFGGGTKLTVLG
notes: also called Antibody B7
Kd [8]: 768 nM | Kd [9]: 4.07 nM

B8: Clone E10, original phage-displayed antibody fragment (other)
VH: EVQLVQSGAEVKKPGASVEVSCKASGYTFNAYYIHWVRQAPGQGLDWMGWINPNSGGTNYAQNFKGRVTMTRDTSISTAYLELRSLTSDDTAVYFCATERGYTSSFRRDAFDKWGQGTLLTVSS
VL: ESVLTQPPSISAAPGQRVTIPCSGSSSDIGNHYVSWYQQLPGAAPKLLIYEDNKRPSGIPDRFSGSKSGTSASLGITGLQTGDEADYYCGTWDNSLRSGFFGGGTKVTVLG
notes: also called CloneE10 (phage clone)
absorbance [5]: > 1 absorbance

B9: Clone E10 recombinant human IgG1 monoclonal antibody (antibody, V domains shown)
VH: EVQLVQSGAEVKKPGASVEVSCKASGYTFNAYYIHWVRQAPGQGLDWMGWINPNSGGTNYAQNFKGRVTMTRDTSISTAYLELRSLTSDDTAVYFCATERGYTSSFRRDAFDKWGQGTLLTVSS
VL: ESVLTQPPSISAAPGQRVTIPCSGSSSDIGNHYVSWYQQLPGAAPKLLIYEDNKRPSGIPDRFSGSKSGTSASLGITGLQTGDEADYYCGTWDNSLRSGFFGGGTKVTVLG
Kd [10]: 2.23 nM | Kd [2]: 664 nM

B10: Clone C10, original phage-displayed antibody fragment (other)
VH: EVQLVQSGAEVKKPGASVKVSCKASGYTFNAYYIHWVRQAPGQGLDWMGWINPNSGGTNYAQNFKGRVTMTRDTSISTAYLELRSLTSDDTAVYFCATERGYTSSFRRDAFDKWGQGTMLTVSS
VL: EAVVTQPPSASGTPGQGVTISCSGSSSNIGSNFVYWYQQLPGTAPKLLIYRNNQRPSGVPDRFSGSKSATSASLAISGLRSEDEADYYCATWDDSLSGYVFGTGTKLTVLG
notes: also called CloneC10 (phage clone)
absorbance [5]: > 1 absorbance

B11: Clone D7 recombinant human IgG1 monoclonal antibody (antibody, V domains shown)
VH: EVQLVQSGAEVKKPGASVEVSCKASGYTFNAYYIHWVRQAPGQGLDWMGWINPNSGGTNYAQNFKGRVTMTRDTSISTAYLELRSLTSDDTAVYFCATERGYTSSFRRDAFDKWGQGTMLTVSS
VL: ESVLTQPPSVSAAPGQKVTMSCSGSTSNIGSNSVSWYQHLPGTAPKLLLFDNAKRPSGIPDRFSGSKSGTSATLGITGLQTGDEADYYCGTWDSGLSVMVFGGGTKLTVLG
Kd [10]: 3.86 nM | Kd [2]: 465 nM

B12: Clone A11, original phage-displayed antibody fragment (other)
VH: MQLVQSGAEVKKPGASVKVSCKTSGYNFNHQGISWLRQAPGQGLEWMGWISGFNGKTNYAQKFQGRVTMTADRSTTTAYMELRSLRSDDTAVYYCASGGEQWLVQNFVHWGQGTLLTVSS
VL: VLTQEPSLTVSPGGTVTLTCASSTGAVTSGYYPNWFQQKPGQAPRALIYSTSNKHSWTPARFSGSLLGGKAALTLSGVQPEDEAEYYCLLYYGGAWVFGGGTKLTVL
notes: The printed VH and VL begin one or two residues later than those of the other clones, so they may be cut short at the N-terminus; also called CloneA11 (phage clone)
absorbance [5]: > 1 absorbance
